These results are taken from patent US8226967B2, “Surface active proteins as excipients in solid pharmaceutical formulations” (BASF SE, priority 2008, dated 2012).

What all share (assay type): physicochemical
A short description of series [1]: Dissolution test of Traumeel S tablets coated with alginate/hydrophobin biopolymer. The note with it: Traumeel S tablets coated with 2% alginate containing 200 μg/ml protein, 0.1 M HCl pH 1, ambient temperature, FIG. 5A. How it is done: Homeopathic Traumeel®S tablets (Heel GmbH, Baden Baden, Germany) are used for coating experiments. These tablets are highly soluble and are formulated based on lactose monohydrate and magnesium stearate. […] Tablets are then immersed immediately into a solution of 0.1 M CaCl2 and dried at room temperature. For the dissolution test, tablets are immersed in 50 ml 0.1 M HCl at room temperature.
Traumeel® S (Heel) tablets are coated with hydrophobin, and resistance to acidic conditions of pH 1.0 is tested in a dissolution assay. Traumeel® S tablets are submersed in a solution of 2% alginate, containing 200 μg/ml TT, PO, TR or SC, respectively. […] After short submersion, alginate-coated tablets are allowed to polymerise in 0.1M CaCl2 and dried over night at ambient temperature.
The incubation for the dissolution test is at ambient temperature in 0.1M HCl for 10 to 120 min. Results: The coating of tablets with a biopolymer consisting of alginate with an admixture of hydrophobin yields beneficial properties regarding sustained release of a pharmaceutical composition.

Series [2] in a line: Release of indicator dye from gelatine capsules coated with alginate/hydrophobin biopolymer. An excerpt: (§1) For setting up the leakage experiments, gelatine capsules with a volume of 0.68 cm^3 (Capsulae operculatae Nr. 0, Pharmapol GmbH, D-25578 Dageling) are filled with the indicator dye bromo phenol blue. The capsules are filled with equal weight proportions of mannitol, sodium hydrogen carbonate, trisodium citrate dehydrogenate and water-soluble bromo phenol blue and closed by joining the upper and lower part of the capsule tightly. To avoid unspecific leakage from the capsule, the joint is sealed.
Filled and sealed capsules were submerged in a solution of 2% w/v alginate (E400) containing 200 μg/ml hydrophobin for 10 seconds. […] Crosslinking of alginate is accomplished by subsequent submerging in 0.1 M CaCl2. Subsequently, the capsules are dried at room temperature.
(§2) For testing the release of dye from the capsules after different surface treatments, the capsules are submerged in 50 ml 0.1 M HCl corresponding to a pH of 1.0 in order to mimic the acidic environment in the stomach. In a second setup, 0.4 U/ml pepsin are added to the 0.1 M HCl to test for resistance to a typical enzyme in the stomach juice. Quantification of the release is accomplished by computer aided optical evaluation of different areas of the solution in the immersion bath leading to arbitrary luminance units.
Hydrophobin SC is prepared and the gelatine capsules are filled with indicator dye as described above. Filled and sealed capsules are submerged in a solution of 2% w/v alginate (E400) containing 200 μg/ml hydrophobin.
Three hydrophobins are used to test if the modulation of the release kinetics of alginate coated gelatine capsules can be achieved with different hydrophobins. SC is prepared as described further above. Two additional hydrophobins are recombinantly produced in a similar procedure as described for SC. TT is from Talaromyces thermophilus and PO from Pleurotus ostreatus. Capsules are filled with indicator dye, sealed and immersed in a mixture of alginate and hydrophobin SC, TT or PO, respectively, as described in examples 1 and 2. As a control, an admixture of alginate and BSA is used. […]

Series [3] is described as follows: Dissolution of gelatine films with or without hydrophobin. The note with it: gelatine with 200 μg/ml hydrophobin. How it is done: Gelatine (stained red, purchased from RUF, Quakenbrück, Germany) is solubilized in water or a SC-solution (final concentration 200 μg/ml). 500 μl solubilized gelatine is added per well of a 6-well macroplate. Gelatine is dried over night at 50° C. Then 500 μl H2O, 0.1 N HCl or 0.1 N HCl with 0.4 U/ml pepsin, respectively, are added to the wells.

The nature of series [4]: Release of indicator dye from gelatine capsules coated by spraying with hydrophobin. The note with it: for release of dye from capsules (retention of dye within the capsule): gelatine capsules sprayed with 200 μg/ml hydrophobin in water, 0.1 M HCl pH 1.0, interval of observation 2 hours, FIG. 1A.
Description: as §1
The filled and sealed capsules are sprayed using a commercially available nebuliser with a solution of 200 μg/ml SC in water.
as §2
The release of dye from capsules coated by spraying with hydrophobins or as a control with water, respectively, is assayed in an acidic environment to mimic stomach conditions. The amount of dye contained in the immersion bath is measured by optical evaluation and given as arbitrary luminance units.

B1: PO: class I hydrophobin from Pleurotus ostreatus, accession CAA76494, recombinant from E. coli (protein, UniProt O60048 22-113, looked up)
Class I hydrophobin POH3: IPRTNPPAPTCTTGSLQCCNSVQAASNPVVGLLAGLLGIVLGPITGQVGLTCSPITVIGVGGTSCSAQTVCCNGNSFNGLIVVGCSPVNISL
Take B1: in series [1], the “resistance to dissolution of the coated tablet (integrity of tablets)” value is listed as “superior to the class II hydrophobin TR”.

B2: SC: class I hydrophobin from Schizophyllum commune, accession P16933, recombinant his-tagged from E. coli (protein, UniProt P16933 25-136, looked up)
Class I hydrophobin SC3: GGHPGTTTPPVTTTVTVTTPPSTTTIAAGGTCTTGSLSCCNQVQSASSSPVTALLGLLGIVLSDLNVLVGISCSPLTVIGVGGSGCSAQTVCCENTQFNGLINIGCTPINIL
modifications: His tag
As to B2, the “resistance of coated capsules / onset of dye release, acidic environment” value in series [2] (alginate with 200 μg/ml protein, pH 1.0, FIG. 3A) is “increased resistance to stomach juices”. In addition, the “release characteristics of capsules (dye release)” value in series [2] (alginate-coated capsules, 200 μg/ml protein, 0.1 M HCl pH 1.0 with 0.4 U/ml pepsin, FIG. 2B) is “essentially the same”. For the same molecule, the “resistance of capsules to acidic conditions (dye release)” value in series [2] (capsules submerged in 2% w/v alginate containing 200 μg/ml protein, pH 1.0, FIG. 2A) is “comparable to that of gelatine capsules sprayed with hydrophobin”. Moreover, the dissolution of gelatine entry in series [3] (dried, H2O, 0.1 N HCl or 0.1 N HCl with 0.4 U/ml pepsin, FIG. 5B) is “inhibits the dissolution of gelatine”. Besides, the “dissolution of gelatine in an environment mimicking gastric juices” value in series [3] (0.1 N HCl, with or without 0.4 U/ml pepsin) is listed as “reduced”. The “dissolution of the biopolymer gelatine in water” value in series [3] (water) is reported as “strongly hampered”. Moreover, the results for the “resistance to dissolution of the coated tablet (integrity of tablets)” value in series [1] and in series [1] (listed as SC3) were “superior to the class II hydrophobin TR” and “delays the dissolution of the tablets significantly”, respectively. The “release of dye from capsules (retention of dye within the capsule)” value is “prolonged retention of dye within the capsule” in series [4] and “resistant to an acidic environment” in series [4] (listed as SC3). For the same molecule, the “release of dye from capsules” value in series [4] (sprayed gelatine capsules, 0.1 M HCl pH 1.0 with 0.4 U/ml pepsin, FIG. 1B) is “same advantageous release characteristics”.
